Results: PMC5934625, “A structurally conserved motif in γ-herpesvirus uracil-DNA glycosylases elicits duplex nucleotide-flipping”

Target: T1, kUNG (kUNGΔ18), uracil-DNA glycosylase (Kaposi's sarcoma-associated herpesvirus …, UniProt F5HFA1 19-255)
T1 sequence: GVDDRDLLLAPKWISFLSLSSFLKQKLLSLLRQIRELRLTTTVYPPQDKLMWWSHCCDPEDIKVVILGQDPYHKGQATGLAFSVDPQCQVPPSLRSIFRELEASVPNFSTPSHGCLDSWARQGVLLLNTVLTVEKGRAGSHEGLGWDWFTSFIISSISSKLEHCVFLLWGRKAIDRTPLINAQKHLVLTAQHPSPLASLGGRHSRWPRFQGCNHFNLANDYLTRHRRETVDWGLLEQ
Test: X-ray crystallography; product complex after uracil cleavage; 100 mM Mg acetate in crystallisation; Crystallisation: protein:DNA 1:1.2, annealing buffer 20 mM Tris-HCl pH 7.4, 100 mM NaCl, 20 mM MgCl2; crystals in 100 mM sodium acetate pH 4.5, 100 mM Mg acetate, 8% PEG 8000, 16 °C. Km/Vmax of mutants (Table 3) are turnover only and left out.
Conditions: protein: recombinant; tags: N-terminal 6xHis-TEV cleaved; Ser-Ala-Ser remains; label: 5'-FAM on strand 1; 5' overhang 1 nt (strand 1); U:A pair

B1: 5'FAM-idu_2 duplex (dsDNA)
DNA 1: AAAGATAACATT
DNA 2: AATGTUATCTT
modifications: dU at position 6 of strand 2; converted to abasic site (beta-anomer deoxyribose) in the product complex, no density for uracil
B1: binds.
